Experimental data taken from patent US10435668.

Legend:
[1] = target: 2C T cell receptor on CD8+ T cells of 2C TCR transgenic mice (mouse); assay: estimated from dissociation data, activated 2C T cells
[2] = target: 2C T cell receptor on CD8+ T cells of 2C TCR transgenic mice (mouse); assay: flow cytometry off-rate assay on naive 2C T cells, derived from off-rate
[3] = target: 2C T cell receptor on CD8+ T cells of 2C TCR transgenic mice (mouse); assay: flow cytometry off-rate assay on activated 2C T cells, derived from off-rate
[4] = target: 2C T cell receptor on CD8+ T cells of 2C TCR transgenic mice (mouse); assay: estimated from dissociation data, naive 2C T cells; one contact is assumed for the dimer on naive cells
[5] = target: 2C T cell receptor on CD8+ T cells of 2C TCR transgenic mice (mouse); assay: flow cytometry off-rate assay on naive 2C T cells, APC-labeled MHC-Ig, 1B2 added to prevent re-binding, exponential fit
[6] = target: 2C T cell receptor on CD8+ T cells of 2C TCR transgenic mice (mouse); assay: flow cytometry off-rate assay on activated 2C T cells, APC-labeled MHC-Ig, 1B2 added to prevent re-binding, exponential fit
[7] = target: 2C T cell receptor on CD8+ T cells of 2C TCR transgenic mice (mouse); assay: estimated from dissociation data, naive 2C T cells
[8] = target: 2C T cell receptor on CD8+ T cells of 2C TCR transgenic mice (mouse); assay: estimated from dissociation data, naive cells (6.8 contacts)
[9] = target: 2C T cell receptor on CD8+ T cells of 2C TCR transgenic mice (mouse); assay: off-rate assay, flow cytometry, activated against naive T cells
[10] = target: 2C T cell receptor on CD8+ T cells of 2C TCR transgenic mice (mouse); assay: estimated from dissociation data, activated cells (12.6 contacts)
[11] = target: 2C T cell receptor on CD8+ T cells of 2C TCR transgenic mice (mouse); assay: flow cytometry, Alexa 647 labeled particles bound to naive CD44lo 2C T cells
[12] = target: 2C T cell receptor on CD8+ T cells of 2C TCR transgenic mice (mouse); assay: equilibrium particle binding assay, flow cytometry, activated against naive T cells
[13] = target: pmel T cell receptor on CD8+ T cells of pMEL TCR transgenic mice (mouse) (UniProt Q60696); assay: flow cytometry, Alexa 647 labeled particles on control non-cognate CD44lo pmel T cells
[14] = target: 2C T cell receptor on CD8+ T cells of 2C TCR transgenic mice (mouse); assay: flow cytometry, Alexa 647 labeled particles bound to activated 2C T cells (seven days after peptide activation)
[15] = target: 2C T cell receptor on CD8+ T cells of 2C TCR transgenic mice (mouse); assay: flow cytometry off-rate assay on naive 2C T cells, APC-labeled nanoparticles bearing K^b-SIY alone, 1B2 added to prevent re-binding, exponential fit
[16] = target: 2C T cell receptor on CD8+ T cells of 2C TCR transgenic mice (mouse); assay: flow cytometry off-rate assay on activated 2C T cells, APC-labeled nanoparticles bearing K^b-SIY alone, 1B2 added to prevent re-binding, exponential fit

Sequence of UniProt Q60696 (Q60696 whole entry): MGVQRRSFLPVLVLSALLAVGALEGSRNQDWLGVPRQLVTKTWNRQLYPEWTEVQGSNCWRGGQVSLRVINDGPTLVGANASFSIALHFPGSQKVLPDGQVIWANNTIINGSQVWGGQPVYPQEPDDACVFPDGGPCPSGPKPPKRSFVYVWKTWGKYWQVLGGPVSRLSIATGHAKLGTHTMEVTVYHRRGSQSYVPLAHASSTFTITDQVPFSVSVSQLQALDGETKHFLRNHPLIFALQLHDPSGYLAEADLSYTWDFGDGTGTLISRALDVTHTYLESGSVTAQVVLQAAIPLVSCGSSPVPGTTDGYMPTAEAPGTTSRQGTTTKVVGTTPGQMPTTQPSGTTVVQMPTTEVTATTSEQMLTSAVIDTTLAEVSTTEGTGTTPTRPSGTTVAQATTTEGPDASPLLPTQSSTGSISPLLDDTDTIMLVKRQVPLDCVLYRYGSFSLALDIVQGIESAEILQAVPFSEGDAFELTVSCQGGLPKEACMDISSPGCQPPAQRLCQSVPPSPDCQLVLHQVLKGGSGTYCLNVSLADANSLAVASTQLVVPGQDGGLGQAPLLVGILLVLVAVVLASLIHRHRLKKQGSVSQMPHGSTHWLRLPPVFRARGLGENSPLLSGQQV

Row | TCR-MHC Contacts [1] [contacts] | Half-Life [2] [min] | Half-Life [3] [min] | TCR-MHC Contacts [4] [contacts] | koff [5] [s⁻¹] | koff [6] [s⁻¹] | TCR-MHC Contacts [7] [contacts] | percent of MHC-Ig dimers on the particle surface in TCR-MHC contacts [8] [%] | fold slower disassociation from activated than from naive cells [9] [fold] | percent of MHC-Ig dimers on the particle surface in TCR-MHC contacts [10] [%] | MFI [11] [MFI] | fold fewer nanoparticles bound at equilibrium by activated than by naive cells [12] [fold] | MFI [13] [MFI] | MFI [14] [MFI] | koff [15] [s⁻¹] | koff [16] [s⁻¹] | Substance
1 | 1.7 | 1.3 | 1.87 | 1 | 0.0089 | 0.0052 |  |  |  |  |  |  |  |  |  |  | K^b-SIY MHC-Ig dimer (soluble K^b-Ig loaded with SIY peptide) (from UniProt P01901 22-305) (peptide-MHC)
2 | 12.6 | 8.85 | 16.4 |  |  |  | 6.8 | 11 | 2 | 22 | 179 | 2 | 21 | 89 | 0.002 | 0.0009 | Nanoparticles bearing K^b-SIY MHC-Ig alone (iron-dextran nanoparticle, no anti-CD28) (from UniProt P01901 22-305) (peptide-MHC)
